Reference: US11499162B2, “Plants having increased tolerance to herbicides” (BASF SE, priority 2016, dated 2022)

Type: biochemical
Conditions: pH 7.2
Experimental: EXAMPLE 3: Protein Purification. TriA and variants thereof were produced in E. coli BL21(DE3) Gold (Agilent Technologies, Germany). Therefore E. coli was transformed with appropriate pET24d N-HIS tag expression vector and chaperone plasmid pGro7 (chaperones groEL and groES). Bacterial strains were grown at 30° C. in 100 mL LB for 20 h and protein expression induced with 0.1 mM IPTG at 25° C. for 20 hs. Cells were harvested by centrifugation at 3000 rpm at 4° C. for 20 min, resuspended in Bug Buster protein extraction reagent (Novagen, Germany) according to manufactures instructions. Lysates were clarified by centrifugation. Samples of bovine serum albumin ([…]) were loaded onto each gel analyzed by densitometry to provide an internal standard. Protein determinations were verified using Coomassie protein assay dye, according to manufactures instruction (Thermo Scientific; USA). The HIS-tagged enzymes were purified by metal ion affinity chromatography using Ni-IDA 1000 kit (Macherey-Nagel, Germany) following manufactures instructions. Protein purity was accessed by SDS-PAGE using NuPAGE Novex 4-12% Bis-Tris pre-cast gels (Life Technologies; USA) stained with Coomassie Brilliant Blue (Serva, Germany). Protein concentrations were estimated by measuring absorbance at 280 nm using Lambda Bio+(Perkin Elmer, USA). EXAMPLE 4: Enzyme kinetics. Resting cell suspension containing triA gene were incubated with various azines, melamine and atrazine and the culture filtrate was analyzed by UPLC-HR-MS. Substrates were obtained either from Sigma-Aldrich or synthesized internally. Synthetic standards and enzyme reaction products were analysed by UPLC-HR-MS (Thermo/Dionex UPLC UltiMate3000 coupled to a QExactive high resolution mass spectrometer). A Waters Acquity HSS T3 column (2.1 mm; 100 mm; […]) was used with a mobile phase water/acetonitrile (0.1% formic acid) with a flow rate of […]. Enzymes were used solved 25 mM sodium phosphate buffer (pH 7.2) with substrate concentration in the range of 1 nM to 10 nM at 30° C. Over time, the original azine peak disappeared whereas the formed OH-Metabolite (reaction product) increased. The product was identified by determination of the exact formula and by analysis of the accurate MS-MS fragments. Moreover for some of the formed products authentic standards were co-eluted. Degradation in % was calculated against the cells harboring the empty vector as control.

Row | Molecule | Degradation in % of 6-cyclopentyl-N4-(2,3,4,5,6-pentafluorophenyl)-1,3,5-triazine-2,4-diamine [%] | Degradation in % of Melamine [%]
1 | N302E: mutated TriA variant of SEQ ID NO: 2 (protein, Pseudomonas) MQTLSIQHGTLVTMDQYRRVLGDSWVHVQDGRIVALGVHAESVPPPADRVIDARGKVVLPGFINAHTHVNQILLRGGPSHGRQLYDWLFNVLYPGQKAMRPEDVAVAVRLYCAEAVRSGITTINDNADSAIYPGNIEAAMAVYGEVGVRVVYARMFFDRMDGRIQGYVDALKARSPQVELCSIMEETAVAKDRITALSDQYHGTAGGRISVWPAPAITPAVTVEGMRWAQAFARDRAVMWTLHMAESDHDERLHWMSPAEYMECYGLLDERLQVAHCVYFDRKDVRLLHRHNVKVASQVVSEAYLGSGVAPVPEMVERGMAVGIGTDDGNCNDSVNMIGDMKFMAHIHRAVHRDADVLTPEKILEMATIDGARSLGMDHEIGSIETGKRADLILLDLRHPQTTPHHHLAATIVFQAYGNEVDTVLIDGNVVMENRRLSFLPPERELAFLEEAQSRATAILQRANMVANPAWRSL | 1 | 8
2 | Y304K: mutated TriA variant of SEQ ID NO: 2 (protein, Pseudomonas) MQTLSIQHGTLVTMDQYRRVLGDSWVHVQDGRIVALGVHAESVPPPADRVIDARGKVVLPGFINAHTHVNQILLRGGPSHGRQLYDWLFNVLYPGQKAMRPEDVAVAVRLYCAEAVRSGITTINDNADSAIYPGNIEAAMAVYGEVGVRVVYARMFFDRMDGRIQGYVDALKARSPQVELCSIMEETAVAKDRITALSDQYHGTAGGRISVWPAPAITPAVTVEGMRWAQAFARDRAVMWTLHMAESDHDERLHWMSPAEYMECYGLLDERLQVAHCVYFDRKDVRLLHRHNVKVASQVVSNAKLGSGVAPVPEMVERGMAVGIGTDDGNCNDSVNMIGDMKFMAHIHRAVHRDADVLTPEKILEMATIDGARSLGMDHEIGSIETGKRADLILLDLRHPQTTPHHHLAATIVFQAYGNEVDTVLIDGNVVMENRRLSFLPPERELAFLEEAQSRATAILQRANMVANPAWRSL | 0 | 2
3 | N70S: mutated TriA variant of SEQ ID NO: 2 (protein, Pseudomonas) MQTLSIQHGTLVTMDQYRRVLGDSWVHVQDGRIVALGVHAESVPPPADRVIDARGKVVLPGFINAHTHVSQILLRGGPSHGRQLYDWLFNVLYPGQKAMRPEDVAVAVRLYCAEAVRSGITTINDNADSAIYPGNIEAAMAVYGEVGVRVVYARMFFDRMDGRIQGYVDALKARSPQVELCSIMEETAVAKDRITALSDQYHGTAGGRISVWPAPAITPAVTVEGMRWAQAFARDRAVMWTLHMAESDHDERLHWMSPAEYMECYGLLDERLQVAHCVYFDRKDVRLLHRHNVKVASQVVSNAYLGSGVAPVPEMVERGMAVGIGTDDGNCNDSVNMIGDMKFMAHIHRAVHRDADVLTPEKILEMATIDGARSLGMDHEIGSIETGKRADLILLDLRHPQTTPHHHLAATIVFQAYGNEVDTVLIDGNVVMENRRLSFLPPERELAFLEEAQSRATAILQRANMVANPAWRSL | 0 | 0
4 | Q71T: mutated TriA variant of SEQ ID NO: 2 (protein, Pseudomonas) MQTLSIQHGTLVTMDQYRRVLGDSWVHVQDGRIVALGVHAESVPPPADRVIDARGKVVLPGFINAHTHVNTILLRGGPSHGRQLYDWLFNVLYPGQKAMRPEDVAVAVRLYCAEAVRSGITTINDNADSAIYPGNIEAAMAVYGEVGVRVVYARMFFDRMDGRIQGYVDALKARSPQVELCSIMEETAVAKDRITALSDQYHGTAGGRISVWPAPAITPAVTVEGMRWAQAFARDRAVMWTLHMAESDHDERLHWMSPAEYMECYGLLDERLQVAHCVYFDRKDVRLLHRHNVKVASQVVSNAYLGSGVAPVPEMVERGMAVGIGTDDGNCNDSVNMIGDMKFMAHIHRAVHRDADVLTPEKILEMATIDGARSLGMDHEIGSIETGKRADLILLDLRHPQTTPHHHLAATIVFQAYGNEVDTVLIDGNVVMENRRLSFLPPERELAFLEEAQSRATAILQRANMVANPAWRSL | 0 | 0
5 | ΔR174_L180: TriA deletion variant of SEQ ID NO: 2 (protein, Pseudomonas) MQTLSIQHGTLVTMDQYRRVLGDSWVHVQDGRIVALGVHAESVPPPADRVIDARGKVVLPGFINAHTHVNQILLRGGPSHGRQLYDWLFNVLYPGQKAMRPEDVAVAVRLYCAEAVRSGITTINDNADSAIYPGNIEAAMAVYGEVGVRVVYARMFFDRMDGRIQGYVDALKACSIMEETAVAKDRITALSDQYHGTAGGRISVWPAPAITPAVTVEGMRWAQAFARDRAVMWTLHMAESDHDERLHWMSPAEYMECYGLLDERLQVAHCVYFDRKDVRLLHRHNVKVASQVVSNAYLGSGVAPVPEMVERGMAVGIGTDDGNCNDSVNMIGDMKFMAHIHRAVHRDADVLTPEKILEMATIDGARSLGMDHEIGSIETGKRADLILLDLRHPQTTPHHHLAATIVFQAYGNEVDTVLIDGNVVMENRRLSFLPPERELAFLEEAQSRATAILQRANMVANPAWRSL | 0 | 1
6 | ΔS129_A130: TriA deletion variant of SEQ ID NO: 2 (protein, Pseudomonas) MQTLSIQHGTLVTMDQYRRVLGDSWVHVQDGRIVALGVHAESVPPPADRVIDARGKVVLPGFINAHTHVNQILLRGGPSHGRQLYDWLFNVLYPGQKAMRPEDVAVAVRLYCAEAVRSGITTINDNADIYPGNIEAAMAVYGEVGVRVVYARMFFDRMDGRIQGYVDALKARSPQVELCSIMEETAVAKDRITALSDQYHGTAGGRISVWPAPAITPAVTVEGMRWAQAFARDRAVMWTLHMAESDHDERLHWMSPAEYMECYGLLDERLQVAHCVYFDRKDVRLLHRHNVKVASQVVSNAYLGSGVAPVPEMVERGMAVGIGTDDGNCNDSVNMIGDMKFMAHIHRAVHRDADVLTPEKILEMATIDGARSLGMDHEIGSIETGKRADLILLDLRHPQTTPHHHLAATIVFQAYGNEVDTVLIDGNVVMENRRLSFLPPERELAFLEEAQSRATAILQRANMVANPAWRSL | 3 | 0
7 | ΔA130_I131: TriA deletion variant of SEQ ID NO: 2 (protein, Pseudomonas) MQTLSIQHGTLVTMDQYRRVLGDSWVHVQDGRIVALGVHAESVPPPADRVIDARGKVVLPGFINAHTHVNQILLRGGPSHGRQLYDWLFNVLYPGQKAMRPEDVAVAVRLYCAEAVRSGITTINDNADSYPGNIEAAMAVYGEVGVRVVYARMFFDRMDGRIQGYVDALKARSPQVELCSIMEETAVAKDRITALSDQYHGTAGGRISVWPAPAITPAVTVEGMRWAQAFARDRAVMWTLHMAESDHDERLHWMSPAEYMECYGLLDERLQVAHCVYFDRKDVRLLHRHNVKVASQVVSNAYLGSGVAPVPEMVERGMAVGIGTDDGNCNDSVNMIGDMKFMAHIHRAVHRDADVLTPEKILEMATIDGARSLGMDHEIGSIETGKRADLILLDLRHPQTTPHHHLAATIVFQAYGNEVDTVLIDGNVVMENRRLSFLPPERELAFLEEAQSRATAILQRANMVANPAWRSL | 0 | 3
8 | ΔA170_S182: TriA deletion variant of SEQ ID NO: 2 (protein, Pseudomonas) MQTLSIQHGTLVTMDQYRRVLGDSWVHVQDGRIVALGVHAESVPPPADRVIDARGKVVLPGFINAHTHVNQILLRGGPSHGRQLYDWLFNVLYPGQKAMRPEDVAVAVRLYCAEAVRSGITTINDNADSAIYPGNIEAAMAVYGEVGVRVVYARMFFDRMDGRIQGYVDIMEETAVAKDRITALSDQYHGTAGGRISVWPAPAITPAVTVEGMRWAQAFARDRAVMWTLHMAESDHDERLHWMSPAEYMECYGLLDERLQVAHCVYFDRKDVRLLHRHNVKVASQVVSNAYLGSGVAPVPEMVERGMAVGIGTDDGNCNDSVNMIGDMKFMAHIHRAVHRDADVLTPEKILEMATIDGARSLGMDHEIGSIETGKRADLILLDLRHPQTTPHHHLAATIVFQAYGNEVDTVLIDGNVVMENRRLSFLPPERELAFLEEAQSRATAILQRANMVANPAWRSL | 2 | 0
